B1: Sumo-tagged Drosophila Spd-2 SP2D (Spd-2 697-998), wild type [D. melanogaster] / itself (parent)
chain: LLPLKVTHTTLCWGSTKLRTDVRKSMQVKNTADKRLVIRLGIQGPGFQLVGTDSSTITLQAMECRSVVINFCPTVCGAAIGALSFYAPPGAHNSNQPGLEIPLYGYGGSASITINGLLKGPVGASFLTIGDVCELSAGPLSANLKFHNKGPLTAFVGISVDSTVLMKLRLSEAFEVRPSRLILPPNSERCVQILFRPNREDLKNILKKTAQVLTLANMRIFCGDEPNRQRMRSLVQRMSSRQREKLTSPMLDSIWGEFPDEQPVRNIGQLNEPPEFILDLVTVVRIIDVALTLNRDFDESSE

The variants in the assay derive from B1. Kind of assay: SEC-MALS. The conditions noted are these: with itself; 200 µM protein; read off a plot.
With chain 1 P121D, the screen value is 45 kDa.
chain 1 F126D: the screen value stood at 46 kDa.

For the origin of these results see article PMC11922060.
